Measurements as given in publication PMC4166039.
Like-named read-outs stand apart in the source and are kept apart here. One block for each substance: values may come before it.

Key:
Assay in all cases: cross-linking
[1] = target: mouse IgG2b isotype control antibody (mouse) (UniProt P01867)
[2] = target: rat IgG2b anti-ICAM1 antibody (YN-1) (rat) (UniProt P20761)
mouse IgG3 (mouse) = target: mouse IgG3 (mouse)
mouse IgG2a (mouse) = target: mouse IgG2a (mouse)
[3] = target: rat IgG2c isotype control antibody (rat) (UniProt P20762)
[4] = target: human IgG1 (human) [IgG part: P01857]
[5] = target: human IgG1 (human) [IgG part: P01857]; remark: listed apart in the source
[6] = target: human IgG4 isotype control antibody (human) [IgG part: P01861]
[7] = target: human IgG2 isotype control antibody (human) [IgG part: P01859]
[8] = target: hamster IgG1 anti-CD3E antibody (145-2C11) (hamster)
[9] = target: mouse IgG1 (mouse) [IgG part: P01868]
[10] = target: rat IgG1 isotype control antibody (rat)
[11] = target: mouse IgG1 (mouse) [IgG part: P01868]; remark: listed apart in the source

UniProt P20762, sequence (P20762 whole entry, looked up): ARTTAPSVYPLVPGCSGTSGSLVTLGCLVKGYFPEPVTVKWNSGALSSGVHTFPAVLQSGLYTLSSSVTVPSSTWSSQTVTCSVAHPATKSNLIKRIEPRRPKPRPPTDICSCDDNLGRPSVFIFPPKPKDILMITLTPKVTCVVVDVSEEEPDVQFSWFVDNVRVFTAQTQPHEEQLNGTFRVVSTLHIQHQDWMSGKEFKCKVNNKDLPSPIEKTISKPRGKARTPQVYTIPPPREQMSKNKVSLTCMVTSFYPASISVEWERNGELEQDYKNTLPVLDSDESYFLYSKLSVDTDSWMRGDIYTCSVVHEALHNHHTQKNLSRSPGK
UniProt P20761, sequence (P20761 whole entry, looked up): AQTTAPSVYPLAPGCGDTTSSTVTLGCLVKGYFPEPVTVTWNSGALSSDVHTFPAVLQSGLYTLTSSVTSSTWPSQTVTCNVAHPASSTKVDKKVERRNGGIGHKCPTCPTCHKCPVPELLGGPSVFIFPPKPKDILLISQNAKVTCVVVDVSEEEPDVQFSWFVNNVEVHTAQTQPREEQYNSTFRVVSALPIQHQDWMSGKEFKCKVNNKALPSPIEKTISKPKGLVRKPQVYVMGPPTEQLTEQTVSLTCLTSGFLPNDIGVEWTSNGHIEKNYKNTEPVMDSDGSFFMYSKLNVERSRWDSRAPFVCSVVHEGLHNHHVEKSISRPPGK

percent of heavy chains cross-linked (1 h UV) [1]: 71%
percent of heavy chains cross-linked (1 h UV) [2]: 20%
percent of heavy chains cross-linked (15 min UV) (mouse IgG3 (mouse)): > 70%
percent of heavy chains cross-linked (1 h UV) (mouse IgG3 (mouse)): 80%
percent of heavy chains cross-linked (2 h UV) (mouse IgG3 (mouse)): 90%
percent of intact IgG cross-linked (15 min UV) (mouse IgG3 (mouse)): 90%
percent of intact IgG cross-linked (1 h UV) (mouse IgG3 (mouse)): > 95%
percent of intact IgG cross-linked (2 h UV) (mouse IgG3 (mouse)): > 96%
percent of heavy chains cross-linked (1 h UV) (mouse IgG2a (mouse)): 60%
percent of heavy chains cross-linked (1 h UV) [3]: 60%
Substance: Protein Z L17BPA variant (designed binder)

percent of heavy chains cross-linked (1 h UV) [4]: 50%
percent of heavy chains cross-linked (1 h UV) [5]: 47%
percent of heavy chains cross-linked (2 h UV) [5]: > 55%
percent of intact IgG cross-linked (1 h UV) [5]: 60%
percent of intact IgG cross-linked (2 h UV) [5]: > 70%
percent of heavy chains cross-linked (1 h UV) [6]: 50%
percent of heavy chains cross-linked (1 h UV) [7]: 17%
percent of heavy chains cross-linked (1 h UV) [8]: 30%
Substance: Protein Z K35BPA variant (designed binder)

Substance: Protein Z K35BPA variant with the background F5I mutation (designed binder)
percent of heavy chains cross-linked (1 h UV) [8]: 37%

percent of heavy chains cross-linked (1 h UV) [9]: 50%
percent of heavy chains cross-linked (1 h UV) [5]: 37%
percent of heavy chains cross-linked (1 h UV) [10]: 10%
percent of heavy chains cross-linked (1 h UV) [7]: 12%
percent of heavy chains cross-linked (1 h UV) [8]: 20%
percent of heavy chains cross-linked (1 h UV) [11]: 50%
percent of heavy chains cross-linked (2 h UV) [11]: > 55%
percent of intact IgG cross-linked (1 h UV) [11]: 60%
percent of intact IgG cross-linked (2 h UV) [11]: > 70%
Substance: Protein Z Q32BPA variant (designed binder)
